Results as given in US20240052006A1 (UNIVERSITY OF CHICAGO, published 2024).

Target: T1, mouse plasma-derived SA (mouse SA, Sigma-Aldrich) (mouse, UniProt P07724 25-608)
T1 construct: The SA in the SPR assay was bought (Sigma-Aldrich, plasma-derived, without IL-4); It is not tied to the bought lot by name; also called mouse serum albumin; MSA
Experiment: SPR (Biacore X100): murine FcRn immobilised by amine coupling on a C1 chip, mouse SA flowed at 4000 to 250 nM in pH 5.8 running buffer; Langmuir fit
Method: Murine FcRn recombinant protein (Acro Biosystems) was immobilized via amine coupling on a C1 chip (GE Healthcare) for ˜200 resonance units (RU) according to the manufacturer's instructions. SA-IL4 or SA (mouse SA, Sigma-Aldrich) was flowed at decreasing concentrations in the running buffer (0.01 M monobasic anhydrous sodium phosphate, pH 5.8, 0.15 M NaCl) at 30 μl/min. The sensor chip was regenerated with PBS, pH 7.4 for every cycle. Specific bindings of SA fusion proteins to FcRn were calculated by comparison to a non-functionalized channel used as a reference. Experimental results were fitted with Langmuir binding kinetics using BIAevaluation software (GE Healthcare).

Kd: 294 nM | koff: 0.0011 s⁻¹ | kon: 3700 M⁻¹ s⁻¹
B1: Murine FcRn recombinant protein (Acro Biosystems) (receptor, mouse)
chain 1: SETRPPLMYHLTAVSNPSTGLPSFWATGWLGPQQYLTYNSLRQEADPCGAWMWENQVSWYWEKETTDLKSKEQLFLEALKTLEKILNGTYTLQGLLGCELASDNSSVPTAVFALNGEEFMKFNPRIGNWTGEWPETEIVANLWMKQPDAARKESEFLLNSCPERLLGHLERGRRNLEWKEPPSMRLKARPGNSGSSVLTCAAFSFYPPELKFRFLRNGLASGSGNCSTGPNGDGSFHAWSLLEVKRGDEHHYQCQVEHEGLAQPLTVDLDSSARSS
chain 2: IQKTPQIQVYSRHPPENGKPNILNCYVTQFHPPHIEIQMLKNGKKIPKVEMSDMSFSKDWSFYILAHTEFTPTETDTYACRVKHASMAEPKTVYWDRDM
notes: Bought from Acro Biosystems and immobilised by amine coupling on a C1 chip; also called Recombinant mouse FcRn; neonatal Fc receptor
